Values quoted from earlier work in paper PMC5724930.
Where two headings read alike, the source gives them in different places.

What was measured:
[1] = biological target: proPanD (Escherichia coli) (UniProt P0A790)
[2] = biological target: proPanD (Escherichia coli) (UniProt P0A790); remark: listed apart in the source

Sequence of proPanD (Escherichia coli) (P0A790 whole entry): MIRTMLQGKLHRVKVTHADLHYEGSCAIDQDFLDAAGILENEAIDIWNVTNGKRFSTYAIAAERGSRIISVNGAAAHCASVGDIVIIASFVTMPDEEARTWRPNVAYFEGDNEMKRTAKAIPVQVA
Sequence of PanZ (P37613 whole entry): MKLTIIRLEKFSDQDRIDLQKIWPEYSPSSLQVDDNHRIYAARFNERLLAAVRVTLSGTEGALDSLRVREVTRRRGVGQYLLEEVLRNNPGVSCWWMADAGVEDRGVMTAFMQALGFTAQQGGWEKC

Kd [1]: 100 nM
Kd [2]: 4000 nM
Substance: PanZ (from UniProt P37613)
